Results taken from the DeepSol protein solubility set.

test: soluble on expression in E. coli; label from the status in PepcDB or PDB records

Soluble on expression in E. coli, soluble:
GSACELPECQEDAGNKVCSLQCNNHACGWDGGDCSLNFNDPWKNCTQSLQCWKYFSDGHCDSQCNSAGCLFDGFDCQRAEGQCNPLYDQYCKDHFSDGHCDQGCNSAECEWDGLDCAEHVPERLAAGTLVVVVLMPPEQLRNSSFHFLRELSRVLHTNVVFKRDAHGQQMIFPYYGDVRGSIVYLEIDNRQCVQASSQCFQSATDVAAFLGALASLGSLNIPYKIEAVQSETVEPANSHHHHHH, GQYKIQIFEKGDFSGQMYETTEDCPSIMEQFHMREIHSCKVLEGVWIFYELPNYRGRQYLLDKKEYRKPIDWGAASPAVQSFRRIVE, MYEITATIVTYKNPDSVLLKAINSFLNTKLEVRLYIIDNSPTDYLKDISYDPRVEYIFMNSNNGFGAGHNVILRDPEKMGKYHLILNPDISFEEGTLEKLYDYMEGKLDVGNVMPKVIYPNGELQYLCKLLPTPKDWIVRMFLPIKSIKNRIDYNFEMKFADYDREMNIPYLSGCFMFLRKSVIEGIGVFDEGIFMYGEDTDLNRRIYRKYKTMYYPQVTITHHFEKGSHKSLRLLWIHVKAAIYYLNKWGWFFDKERSIINITVKQQYIRKLEHHHHHH, SEAVGVAPAPAGVPEKKLLEVKESRKAAPAAPSTSMAAKWAMKKKLVGGDAGYVLEDVPHLTDYLPELPTYPNPLQDNPAYSVVKQYFVNTDDTVTQKIVVHKTSARGTHFRRAGPRQRVYFQSDEVNAAIVTCGGLCPGLNTVIRELVCGLYDMYGVTSVVGIEGGYKGFYSRNTVALTPKSVNDIHKRGGTVLGTSRGGHDTGKIVDSIKDRGINQVYIIGGDGTQKGASVIYEEVRRRGLKCSVVGVPKTIDNDIAVIDKSFGFDTAVEEAQRAINAAHVEAESAENGIGVVKLMGRNSGFIAMYATLASRDVDCCLIPESPFYLEGKGGLLEFIEKRLKDNGHMVIVVAEGAGQDLIAKSMNFVDTQDASGNKLLLDVGLWLSQKIKDHFKKKRNFPITLKYIDPTYMIRAVRSNASDNVYCTLLAHSALHGAMAGYTGFTVAPVNGRHAYIPFYRITEKQNKVVITDRMWARVLCSTNQPCFLSHEDVEHLKHDDDEHHLHNTQLLEGESSPVKDSSKCNGTAAPV, MTGEIVTVVKGKVRWVEGEQFIGRIEGDKCSVILGEGGISPMKLLLLSVAGCTSYDVVMILKKMREPIKGLEVEIEGVRREEHPRIYKEVTIHYKIYGNVNEKKARRAIELSQEKYCSASAHLKLSGTDVKYTLEVIRDDEPPSQLNK, MKVLVVGNGGREHAIAWKVAQSPLVKELYVAKGNAGIWEIAKRVDISPTDVEKLAEFAKNEGVDFTIVGPEAPLVEGIVDEFEKRGLKIFGPNKEAAKLEGSKAFAKTFMKKYGIPTARYEVFTDFEKAKEYVEKVGAPIVVKADGLAAGKGAVVCETVEKAIETLDRFLNKKIFGKSSERVVIEEFLEGEEASYIVMINGDRYVPLPTSQDHKRLLDEDKGPNTGGMGAYSPTPVINEEVEKRIREEIVERVIKGLKEEGIYYRGFLYAGLMITKEGPKVLEFNVRLGDPEAQPILMRVKNDFLETLLNFYEGKDVHIKEDERYALDVVLASRGYPEKPETGKIIHGLDYLKSMEDVVVFHAGTKKEGNFTVTSGGRVLNVCAYGKTLKEAKERAYEAIRYVCFEGMHYRKDIGDKAFKYLSE

Soluble on expression in E. coli, not soluble:
GPGSMRGIARPTVATVGLSQQVVAFDEWVWALNELGGRESFRKNWRYYALRIDTVHFLMFVLDVLNGQALDEARQYLKEVTSHYHEVPLLVVFNNFREGHRRFDISEFEALIHLDKLRRRHGADVLSCVCDISVVHSKNRQLPRTLSSTLRTLSSLLKARSKSENGGDGGAPPVPKATTSFSASVVGGAAGDAAAGDGVVHS, MLGLVSLCALILILWRVVYRSVTRPLAEQTQALQRLLDGDIDSPFPETAGVRELDTIGRLMDAFRSSVHALNRHREQLAAQVKARTAELQELVIEHRQARAEAEKASQAKSAFLAAMSHEIRTPLYGILGTAQLLADNPALNAQRDDLRAITDSGESLLTILNDILDYSAIEAGGKNVSVSDEPFEPRPLLESTLQLMSGRVKGRPIRLATEIADDVPTALMGDPRRIRQVITNLLSNALRFTDEGHIILRSRTDGEQWLVEVEDSGCGIDPAKLAEIFQPFVQVSGKRGGTGLGLTISSRLAQAMGGELSATSTPEVGSCFCLRLPLRIATAPVPKTVNQAVRLDDLRLLLIEDNPLTQRITVEMLNTSGAQVVAVGNAAQAIEALQNSEPFAAALVDFDLPDIDGITLARQLAQQYPSLVLIGFSAHVIDETLRQRTSSLFRGIIPKPVPREVLGQLLAHYLQLQVNNDQPLDVSQLNEDAHLMGAEKIHEWLILFKQHALPLLDEIDIARASQDNEKIKRAAHQLKSSCSSLGMRSASQQCAQLEQQPLSAPLPHEEITRSVAALEAWLIRKT, MGSDKIHHHHHHMSQVIPASSQEKRRERIVSYVTRHGFARVEALAELFEVSAMTIHRDLEALAADNLVERIRGGARSVSPSMSELAVEQRRHLHRTVKEALCTAAARLIPEGAVVAIDDSTTLESLVEKLPQRSPSALITHSLKTMADHRVRAGMSDIRLIACAGLYFAETDSFLGKATSAQLNELSADISFVSTTAVRATGEVPALFHPDMEAADTKRALIGIGSVRVLVVDSSKFGSAGVFKVASIEEFDHIIIDQQCTREQRDLLRNSRAQIHVIDHNGDEILDTPTEEDF, GPGSMEGLSPPETDECAKPHNRECNTTPSSGSPPSNIPPQQLLCSVRSGMHSNLTESAWESRESNSGYAHEKQSGVDGDACTRYYQRLHRFYEQYNPKNLSRISEYLAAYKGKEEQLMAILVGKYGPEPVDRGPQTNLSCCSGDDSVMHFSGKRYRIPTVVTPQQGNTDCETPYWGNSPLIGERDILGLLSSLETANVELQKCYIGPSAQHPTSSWNGMTYVTRAEIFTPNEETFLGHKWTFTLGSKKVLVHEGSAYHRATFFCTDECQYRGRHERWRLCVYTSSVDSLYLVRVIWDPVVYLEPLPLDRSALSQHSSSEAMPIAGSSVSYQTSCGKGNTEPEQPLISATMINIMTMLENMDKKISGRFDALEARFSFLESKLLGAVDDKQRTEDR, MTDVKTQNAISLKGSAQLVKEFFHFGLNSILYQRALYPSDSFKREKKYGLTLWVAHEKKLQAFMDPLLQQVEYWLAKRQLKRLVMVISEVKTKEVVERWQFDIHTENLAEEGYEIV, MLVDKTEFEAWMERIMGELYRISRKLDKAETREKHLNYLNGERLYDNQEVCLLLRISKRTLQRYRNNGVLKFYSIYHKTYYKESDLHEFIRNNFDENEIKRQAREDKLSESYPLPKE, MSVPFLQQYRVGSYILKQKLAGNKRYPLVLMLEPLFQCNLACAGCGKIDYPEETLRRRLSVDECLHAVDECGAPVVSIAGGEPLIHKEMPQIVQGIIQRKKFVYLCTNALLLDTRMDDYQPSPYLTFSIHLDGNRERHDASVCREGVYDKVIPVIEQALQRGFRVTVNCTLFQSETAEEVAEFFDTATKLGVEGINVSPGFSYEHAPRQDVFLQRSVSKRLFRSIFEIGKKRKLPWKFNHSSLYLDFLAGNQSYKCTPWGNPTRNLFGWQRPCYLLVDEGYATSFRELMEETDWDRYGVGNNPKCANCMAHCGFEPTAINDTFAHPLKALRVSMRGPRVEGPMALDPLQTSSESQHNTDKRKPFPIPVTVEHKTVAPSSDHSSGPDN, MNTKQSNSHSTPSTFEGAQIRQGKASQCKTLMVQGTTSDAGKTTLVAGLCRVFADLQVKVAPFKPQNMALNSAVTPCGGEIGRAQALQAKAARLALDVDFNPILLKPNSDTGAQVIVHGKALMHRSSSNMEASEYQDYKKVAMQAVLSSHQRLTQQYDLVVVEGAGSPAEINLRKGDIANMGFAEAVDCPVLIIADIDKGGVFAQLVGTLMLLSQSEQDRVVGFVINRFRGDIKLLESGLTWLEERTNKPVLGVLPYLHGLDISSEDALVTQQALV
